Results taken from patent US20020132977A1 (Harvard, published 2002).

Molecular target: T1, GFP-tagged p73 (human, UniProt O15350 1-636)
T1 construct: also called GFP-p73; not shown: GFP (pEGFP vector)
T1 sequence: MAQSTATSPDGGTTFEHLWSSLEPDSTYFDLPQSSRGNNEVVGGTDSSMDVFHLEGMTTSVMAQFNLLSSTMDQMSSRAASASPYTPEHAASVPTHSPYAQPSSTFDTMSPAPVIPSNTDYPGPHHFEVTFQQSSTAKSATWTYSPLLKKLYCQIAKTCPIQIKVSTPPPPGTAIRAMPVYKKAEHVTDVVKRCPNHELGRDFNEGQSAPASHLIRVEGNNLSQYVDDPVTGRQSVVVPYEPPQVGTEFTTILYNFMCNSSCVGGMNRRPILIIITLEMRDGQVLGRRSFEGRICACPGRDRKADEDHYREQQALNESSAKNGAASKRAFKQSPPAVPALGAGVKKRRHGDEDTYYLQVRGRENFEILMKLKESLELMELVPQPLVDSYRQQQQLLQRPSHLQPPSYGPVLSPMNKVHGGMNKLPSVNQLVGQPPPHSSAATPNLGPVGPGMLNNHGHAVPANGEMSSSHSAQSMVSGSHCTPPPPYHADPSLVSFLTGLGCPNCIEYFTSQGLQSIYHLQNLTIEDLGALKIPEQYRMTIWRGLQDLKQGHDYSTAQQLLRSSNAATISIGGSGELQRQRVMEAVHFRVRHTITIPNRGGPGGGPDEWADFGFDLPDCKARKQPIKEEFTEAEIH
Assay: anti-Flag IP, anti-GFP Western

B1: p73β (p53aa319-364) (other)
chain: MAQSTATSPDGGTTFEHLWSSLEPDSTYFDLPQSSRGNNEVVGGTDSSMDVFHLEGMTTSVMAQFNLLSSTMDQMSSRAASASPYTPEHAASVPTHSPYAQPSSTFDTMSPAPVIPSNTDYPGPHHFEVTFQQSSTAKSATWTYSPLLKKLYCQIAKTCPIQIKVSTPPPPGTAIRAMPVYKKAEHVTDVVKRCPNHELGRDFNEGQSAPASHLIRVEGNNLSQYVDDPVTGRQSVVVPYEPPQVGTEFTTILYNFMCNSSCVGGMNRRPILIIITLEMRDGQVLGRRSFEGRICACPGRDRKADEDHYREQQALNESSAKNGAASKRAFKQSPPAVPALGAGVKKKPLDGEYFTLQIRGRERFEMFRELNEALELKDAQAGKEPGGSRAQQQQLLQRPSHLQPPSYGPVLSPMNKVHGGMNKLPSVNQLVGQPPPHSSAATPNLGPVGPGMLNNHGHAVPANGEMSSSHSAQSMVSGSHCTPPPPYHADPSLVRTWGP
notes: range 1-344;range 391-C-terminus; also called p73 chimera with OD of p53; Flag-tagged p53-p73 chimera with switched OD; not shown: Flag tag
Question: Does B1 bind?
Answer: Result: no binding
